Patent US20240288446A1, “METHOD FOR DIAGNOSING FIBRINOLYTIC INSUFFICIENCY RELATED TO NEUTROPHIL EXTRACELLULAR TRAPS” (Hôpitaux Universitaires de Strasbourg, priority 2019, published 2024)

Tested on: septic shock plasma euglobulin fraction on fibrin-bound tPA
Experiment: Plasmin formation on tPA-fibrin surfaces from euglobulin fraction of septic shock plasma supplemented with plasminogen
Type: biochemical, human
Conditions: plasminogen normalized to 1.5 μM
Protocol: FIG. 5 represents the Fibrinolytic activity of plasma isolated from septic shock. The fibrinolytic activity of plasma was tested by incubating the corresponding euglobulin fraction with fibrin surfaces to which tPA (50 iu/ml) was previously bound. The euglobulin fraction contains plasminogen and plasminogen fragments bearing K1, K4 and K5 as identified by mass spectrometry (see text and Supplemental file). The amount of plasmin formed was quantified by measuring the change in absorbance at A405 nm using a chromogenic substrate selective for plasmin as indicated in FIG. 3. […]
Plasminogen was quantified with a functional activity assay as described with modifications.(41) Briefly, plasmas were diluted 1:50 in assay buffer (Phosphate 80 mM, NaCl 50 mM, BSA 2 mg/ml), supplemented with 75 i.u./ml urokinase, 1 mM tranexamic acid and 0.75 mM of the plasmin-selective chromogenic substrate in a final volume of 50 μl. […] Plasminogen fragments present in plasma were initially detected by Western blot as indicated above. […] Plasmin formation on fibrin matrices was measured using the euglobulin fraction from healthy control and patient plasmas as source of plasminogen as indicated above. […] Kinetics of plasminogen transformation into plasmin was followed during 1 h by measuring the release of pNA at A405 nm and the initial velocity of the reactions were calculated as indicated above. […]

B1: purified plasminogen: Human Glu-plasminogen, purified, over 99% pure; 92-kDa single-chain proenzyme (SEQ ID NO 1) (protein, listed as Homo sapiens)
chain: EPLDDYVNTQGASLFSVTKKQLGAGSIEECAAKCEEDEEFTCRAFQYHSKEQQCVIMAENRKSSIIIRMRDVVLFEKKVYLSECKTGNGKNYRGTMSKTKNGITCQKWSSTSPHRPRFSPATHPSEGLEENYCRNPDNDPQGPWCYTTDPEKRYDYCDILECEEECMHCSGENYDGKISKTMSGLECQAWDSQSPHAHGYIPSKFPNKNLKKNYCRNPDRELRPWCFTTDPNKRWELCDIPRCTTPPPSSGPTYQCLKGTGENYRGNVAVTVSGHTCQHWSAQTPHTHNRTPENFPCKNLDENYCRNPDGKRAPWCHTTNSQVRWEYCKIPSCDSSPVSTEQLAPTAPPELTPVVQDCYHGDGQSYRGTSSTTTTGKKCQSWSSMTPHRHQKTPENYPNAGLTMNYCRNPDADKGPWCFTTDPSVRWEYCNLKKCSGTEASVVAPPPVVLLPDVETPSEEDCMFGNGKGYRGKRATTVTGTPCQDWAAQEPHRHSIFTPETNPRAGLEKNYCRNPDGDVGGPWCYTTNPRKLYDYCDVPQCAAPSFDCGKPQVEPKKCPGRVVGGCVAHPHSWPWQVSLRTRFGMHFCGGTLISPEWVLTAAHCLEKSPRPSSYKVILGAHQEVNLEPHVQEIEVSRLFLEPTRKDIALLKLSSPAVITDKVIPACLPSPNYVVADRTECFITGWGETQGTFGAGLLKEAQLPVIENKVCNRYEFLNGRVQSTELCAGHLAGGTDSCQGDSGGPLVCFEKDKYILQGVTSWGLGCARPNKPGVYVRVSRFVTWIEGVMRNN
- amount of plasmin formed after plasminogen supplementation (plasma samples S1, S3, S5): increased with a trend to normality
- amount of plasmin formed after plasminogen supplementation (plasma samples S2, S4, S6): insufficient or scant response
